Data taken from patent publication US20120201826A1 (NOV IMMUNE S A, published 2012).

Tests used:
[1] = molecular target: T1, recombinant human RANTES (huRANTES, Peprotech) (human, UniProt P13501 24-91); test: cell-based or functional assay
T1 sequence: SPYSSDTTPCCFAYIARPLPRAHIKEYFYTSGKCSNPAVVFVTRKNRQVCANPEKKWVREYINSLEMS

[2] = molecular target: T2, huRANTES immobilized on glycosaminoglycan (biotin labeled heparin) (human, UniProt P13501 24-91); test: ELISA: biotin-heparin on streptavidin plate, huRANTES captured on the heparin, IgG detected with anti-human IgG Fc-HRP, OD450; antibody concentration not given
T2 construct: also called huRANTES immobilized on GAG; huRANTES in the context of GAG
T2 sequence: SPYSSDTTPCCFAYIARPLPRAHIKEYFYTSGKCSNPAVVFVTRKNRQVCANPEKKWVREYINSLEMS

[3] = molecular target: T1, recombinant human RANTES (huRANTES, …); test: cell-based or functional assay; remark: listed apart in the source

Row | Binder | Calcium Flux IC50 (nM), 10 nM rhuRANTES; L1.2-hCCR5 cells; IgG1 format [1] [nM] | Chemotaxis IC50 (nM), 1 nM huRANTES; L1.2-hCCR5 cells; IgG1 format [1] [nM] | binding result [2] | Chemotaxis IC50 (nM); L1.2 cells expressing hCCR5, 1 nM huRANTES; scFv format [3] [nM]
1 | CG11 antibody, IgG1 format (antibody, V domains shown) VH: QVQLVQSGTEVKKPGATVNVSCKISGHLFTDYYIHWVQQAPGKGLEWVGLIDPKDGEIQYAEKFQARVTITADTSTDTVYMELNSLRSEDTAVYYCATEVLSGIRVFPFDPWGQGTLVTVSS VL: QSVLTQPPSVSGAPGQRVTISCTGSSSNIGAGYDVYWYQQFPGKAPKLLIYDTNNRPPGVPDRFSGSKSGTSASLAISGLQTEDEADYYCQSYDIALSNSNVVFGGGTKLTVL | 9.5 | 4.8 | no binding | –
2 | A9 antibody, IgG1 format (antibody, V domains shown) VH: not shown VL: NFMLTQPHSVSESPGKTVTISCTRSSGSIADNYVQWYQQRPGSAPTTIIYDDDQRLSGVPDRFSGSIDTSSNSASLSISGLRTEDEADYYCQSYDDSNDVFGGGTKLTVL | 3.3 | 1 | no binding | –
3 | E10 scFv (scFv) QVQLVESGGGVVQPGRSLRLSCAASGFTFSSYAMHWVRQAPGKGLEWVAVISYDGSNKYYADSVKGRFSISRDNSKNTLYLQMNSLRAEDTAVYYCARETFPHYYYYYMDVWGKGTMVTVSSSYVLTQPPSVSVAPGQTARISCGGGNFDDEGVHWYQQTPGQAPVLVVYDDTGRPSGIPERFSGSSSGNTATLTISRVEAGDEADYYCQAWDSSNDHPVFGGGTQLTVL | – | – | – | 9.4
4 | H11 antibody, IgG1 format (antibody, V domains shown) VH: QVQLVQSGAEVKKPGSSVKVSCKASGGISDNYALSWVRQAPGQGLEWMGGFIPLVDTTNYAQRFQGRLTITADDSMSTVYMELRSLRSDDTAMYYCAREQVAVGPGPTSDRGPDGLDVWGQGTMVTVSS VL: QSVLTQPSSVSGAPGHRVTISCTGSNSNLGADYDVHWYQQLPGSAPKLLIYDNNIRPSGVPARFSGSKSGTSASLAITGLQAEDEADYYCQSYDTGLTSSDVIFGGGTKLTVL | – | 1.3 | no binding | –
5 | G2 scFv (scFv) QVQLVQSGAEVKKPGASVKVSCRASGYALTELSIHWVRQAPGKGLEWMGGFDPEDGETIYAQNFQGRVIMTEDTSTDTAYMELSSLKSEDTAVYYCATDLTGSRDSWGQGTLVTVSSQSVLTQPASVSGSPGQSITISCTGSRSDIGYYNYVSWYQQHPGKVPKLIIYDVTERPSGVSDRFSGSKSANTASLTISGLQAEDEADYYCSSFSSGDTFVVFGGGTKLTVL | – | – | – | 62
6 | 2D1 scFv (scFv) QVQLVQSGAEVKKPGASVKVSCKVSGYTLNDFAMHWVRQAPGKGLEWMGGYVPEDGDTIYAQKFQGRVTMTEDTSTDTAYMELSSLRSEDTAVYYCATDPLYSGSLSYWGQGTTVTVSSSYVLTQPPSVSVAPGQTARITCGGNNIESKSVHWYQQKPGQAPVLVVYDDSDRPSGIPERFSGSNSGNTATLTISRVEAGDEADYYCQVWDSNTDHWVFGGGTKVTVL | – | – | – | 1.3
7 | H6 antibody, IgG1 format (antibody, V domains shown) VH: QVQLVQSGAEVKRPGASVKVSCKVSGNTLSKQSMHWVRQAPGKGFEWMGSSNPEDDETLYAKKFQGRVTMTEDTSTDTAYLELSSLRSEDTAVYYCATDSQGFYYYYGMDVWGQGTLVTVSS VL: QSVLTQPPSVSGAPGQRVTISCTGSSSNIGADYDVHWYQQLPGTVPKLLIYDNINRPSGVPDRFSGSKSGTSASLAITGLQAEDEADYYCQSYDSSLSGVLFGGGTKVTVL | 9 | 8.7 | no binding | –
8 | H6 scFv (scFv) QVQLVQSGAEVKRPGASVKVSCKVSGNTLSKQSMHWVRQAPGKGFEWMGSSNPEDDETLYAKKFQGRVTMTEDTSTDTAYLELSSLRSEDTAVYYCATDSQGFYYYYGMDVWGQGTLVTVSSQSVLTQPPSVSGAPGQRVTISCTGSSSNIGADYDVHWYQQLPGTVPKLLIYDNINRPSGVPDRFSGSKSGTSASLAITGLQAEDEADYYCQSYDSSLSGVLFGGGTKVTVL | – | – | – | 25
